Experimental data published in US12295987B2, “Method of using a GIP/GLP1 co-agonist for diabetes” (Eli Lilly and Company, priority 2018, dated 2025).
Numbered stars: 1 amine (or outer) side, 2 acyl side, 3 side chain; on linkers, the order of the positions; unused ones are H or OH. Square brackets hold non-standard residues; d marks the D form. Side chains are listed from the residue outwards. Ends that are not written are not given here. * marks the point of attachment. C20 diacid = O=C(O)CCCCCCCCCCCCCCCCCCC(=O)*; γGlu = O=C(O)[C@H](CCC(=O)[*:2])N[*:1]; AEEA = NCCOCCOCC(=O)O; Aib = CC(C)(N)C(=O)O

What follows are substances tested against T1, human gastric inhibitory peptide receptor (hGIPR) (Homo sapiens, UniProt P48546) (assay: cAMP pharmacological functional assay in presence of 0.1% casein, hGIPR). Settings: ratio of hGIPR to hGLP1R cAMP EC50 ratios.
T1 construct: expressed in transfected cells; host or cells: HEK293
T1 sequence (P48546 22-466): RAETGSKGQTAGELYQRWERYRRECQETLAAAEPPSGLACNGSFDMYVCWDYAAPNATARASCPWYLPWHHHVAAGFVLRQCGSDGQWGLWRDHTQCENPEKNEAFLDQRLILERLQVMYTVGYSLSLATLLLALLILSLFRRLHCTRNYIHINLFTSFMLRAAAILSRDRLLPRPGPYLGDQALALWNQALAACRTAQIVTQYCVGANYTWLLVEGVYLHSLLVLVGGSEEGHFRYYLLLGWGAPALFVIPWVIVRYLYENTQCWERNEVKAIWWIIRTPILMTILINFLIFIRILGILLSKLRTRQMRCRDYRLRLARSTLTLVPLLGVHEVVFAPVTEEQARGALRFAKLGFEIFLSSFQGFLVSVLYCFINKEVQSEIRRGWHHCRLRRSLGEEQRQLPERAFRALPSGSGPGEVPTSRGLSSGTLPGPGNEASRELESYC
Type: cell-based
With “Y-Aib-EGT-αMeF-TSDYSI-αMeL-LDKK((2-[2-(2-Amino-ethoxy)-ethoxy]-acetyl)2-(γGlu)-CO—(CH2)18—CO2H)AQ-Aib-Aad-FIEYLIEGGPSSGAPPPS-NH2 (YXEGTXTSDYSIXLDKKAQXXFIEYLIEGGPSSGAPPPS; Aib, Aad, αMeF, αMeL; acylated lysine C20 diacid; amide; (2)..(2) Xaa at position 2 is Aib; (6)..(6) Xaa at position 6 is alpha-methyl-Phe; (13)..(13) Xaa at position 13 is alpha-methyl-Leu; MOD_RES (17)..(17) Lys at position 17 is chemically modified by conjugation of the epsilon-amino group of the Lys side chain with (2-[2-(2-amino-ethoxy)-ethoxy]-acetyl)2-(gamma-Glu)-CO-(CH2)18- CO2H; (20)..(20) Xaa at position 20 is Aib; (21)..(21) Xaa at position 2) [Peptide 137]” the “[hGIPR/hGLP1R] EC50 Ratio” value was 3.58.
For “Y-Aib-EGT-αMeF-TSDYSI-αMeL-LDKK((2-[2-(2-Amino-ethoxy)-ethoxy]-acetyl)2-(γGlu)-CO—(CH2)18—CO2H)AQ-Aib-EFIEYLIEGGPSSG-NH2 (YXEGTXTSDYSIXLDKKAQXEFIEYLIEGGPSSG; Aib, αMe residues, C20 diacid lipidation, C-amide; (2)..(2) Xaa at position 2 is Aib; (6)..(6) Xaa at position 6 is alpha-methyl-Phe; (13)..(13) Xaa at position 13 is alpha-methyl-Leu; MOD_RES (17)..(17) Lys at position 17 is chemically modified by conjugation of the epsilon-amino group of the Lys side chain with (2-[2-(2-amino-ethoxy)-ethoxy]-acetyl)2-(gamma-Glu)-CO-(CH2)18- CO2H; (20)..(20) Xaa at position 20 is Aib; MOD_RES (34)..(34) Gly at po) [Peptide 123]”, the “[hGIPR/hGLP1R] EC50 Ratio” value was 2.56.
With “Y-Aib-EGT-αMeF(2F)-TSD-4Pal-SI-αMeL-LD-Orn-K((2-[2-(2-Amino-ethoxy)-ethoxy]-acetyl)2-(γGlu)-CO—(CH2)16—CO2H)AQ-Aib-TFI-(D-Glu)-αMeY-LIEGGPSSGAPPPS-NH2 (YXEGTXTSDXSIXLDXKAQXTFIXXLIEGGPSSGAPPPS; Aib, 4Pal, Orn, αMe residues, lipidated Lys, D-Glu, amide; (2)..(2) Xaa at position 2 is Aib; (6)..(6) Xaa at position 6 is alpha-methyl-Phe(2F); (10)..(10) Xaa at position 10 is 4Pal; (13)..(13) Xaa at position 13 is alpha-methyl-Leu; (16)..(16) Xaa at position 16 is Orn; MOD_RES (17)..(17) Lys at position 17 is chemically modified by conjugation of the epsilon-amino group of the Lys side chain with (2-[2-(2-amino-ethoxy)-ethoxy]-acetyl)2-(gamma-Glu)-CO-) [Peptide 239]” the “[hGIPR/hGLP1R] EC50 Ratio” value was 5.34.
With “Y-Aib-EGTFTSDYSI-αMeL-LD-Aib-K((2-[2-(2-Amino-ethoxy)-ethoxy]-acetyl)2-(γGlu)-CO—(CH2)18—CO2H)AQ-Aib-AFIEYLIEGGPSSGAPPPS-NH2 (YXEGTFTSDYSIXLDXKAQXAFIEYLIEGGPSSGAPPPS; Aib, αMeL, lipidated Lys, C-terminal amide; (2)..(2) Xaa at position 2 is Aib; (13)..(13) Xaa at position 13 is alpha-methyl-Leu; (16)..(16) Xaa at position 16 is Aib; MOD_RES (17)..(17) Lys at position 17 is chemically modified by conjugation of the epsilon-amino group of the Lys side chain with (2-[2-(2-amino-ethoxy)-ethoxy]-acetyl)2-(gamma-Glu)-CO-(CH2)18- CO2H; (20)..(20) Xaa at position 20 is Aib; MOD_RES (39)..(39) Ser at position 39) [Peptide 60]” the “[hGIPR/hGLP1R] EC50 Ratio” value was 4.47.
“Y-Aib-EGT-αMeF(2F)-TSDYSI-αMeL-LDEK((2-[2-(2-Amino-ethoxy)-ethoxy]-acetyl)2-(γGlu)-CO—(CH2)18—CO2H)AQ-Aib-EFIEYLIEGGPSSGAPPPS-NH2 (YXEGTXTSDYSIXLDEKAQXEFIEYLIEGGPSSGAPPPS; Aib, αMeF(2F), αMeL; acylated lysine C20 diacid; amide; (2)..(2) Xaa at position 2 is Aib; (6)..(6) Xaa at position 6 is alpha-methyl-Phe(2F); (13)..(13) Xaa at position 13 is alpha-methyl-Leu; MOD_RES (17)..(17) Lys at position 17 is chemically modified by conjugation of the epsilon-amino group of the Lys side chain with (2-[2-(2-amino-ethoxy)-ethoxy]-acetyl)2-(gamma-Glu)-CO-(CH2)18- CO2H; (20)..(20) Xaa at position 20 is Aib; MOD_RES (39)..(39) Ser a) [Peptide 118]” was tested, and the “[hGIPR/hGLP1R] EC50 Ratio” value was 3.03.
For “Y-Aib-EGTFTSDYSI-αMeL-LDEK((2-[2-(2-Amino-ethoxy)-ethoxy]-acetyl)2-(γGlu)-CO—(CH2)18—CO2H)AQ-Aib-AFIEYLIEGG-NH2 (YXEGTFTSDYSIXLDEKAQXAFIEYLIEGG; Aib, αMeL; K lipidated C20 diacid-γGlu-AEEA2; C-terminal amide; (2)..(2) Xaa at position 2 is Aib; (13)..(13) Xaa at position 13 is alpha-methyl-Leu; MOD_RES (17)..(17) Lys at position 17 is chemically modified by conjugation of the epsilon-amino group of the Lys side chain with (2-[2-(2-amino-ethoxy)-ethoxy]-acetyl)2-(gamma-Glu)-CO-(CH2)18- CO2H; (20)..(20) Xaa at position 20 is Aib; MOD_RES (30)..(30) Gly at position 30 is amidated) [Peptide 63]”, the “[hGIPR/hGLP1R] EC50 Ratio” value was 4.09.
With “Y-Aib-EGTFTSDYSILLDKK((2-[2-(2-Amino-ethoxy)-ethoxy]-acetyl)2-(γGlu)-CO—(CH2)18—CO2H)AQ-Aib-AFIEYLIEGG-NH2 (Y[Aib]EGTFTSDYSILLDKK([AEEA-AEEA-γGlu-C20 diacid])AQ[Aib]AFIEYLIEGG-NH2; N-terminus assumed; SMILES CC[C@H](C)[C@H](NC(=O)[C@H](CC(C)C)NC(=O)[C@H](Cc1ccc(O)cc1)NC(=O)[C@H](CCC(=O)O)NC(=O)[C@@H](NC(=O)[C@H](Cc1ccccc1)NC(=O)[C@H](C)NC(=O)C(C)(C)NC(=O)[C@H](CCC(N)=O)NC(=O)[C@H](C)NC(=O)[C@H](CCCCNC(=O)COCCOCCNC(=O)COCCOCCNC(=O)CC[C@H](NC(=O)CCCCCCCCCCCCCCCCCCC(=O)O)C(=O)O)NC(=O)[C@H](CCCCN)NC(=O)[C@H](CC(=O)O)NC(=O)[C@H](CC(C)C)NC(=O)[C@H](CC(C)C)NC(=O)[C@@H](NC(=O)[C@H](CO)NC(=O)[C@H](Cc1ccc(O)cc1)NC(=O)[C@H](CC(=O)O)NC(=O)[C@H](CO)NC(=O)[C@@H](NC(=O)[C@H](Cc1ccccc1)NC(=O)[C@@H](NC(=O)CNC(=O)[C@H](CCC(=O)O)NC(=O)C(C)(C)NC(=O)[C@@H](N)Cc1ccc(O)cc1)[C@@H](C)O)[C@@H](C)O)[C@@H](C)CC)[C@@H](C)CC)C(=O)N[C@@H](CCC(=O)O)C(=O)NCC(=O)NCC(N)=O) [Peptide 51]” the “[hGIPR/hGLP1R] EC50 Ratio” value was 3.97.
For “Y-Aib-EGT-αMeF(2F)-TSDYSI-αMeL-LDEK((2-[2-(2-Amino-ethoxy)-ethoxy]-acetyl)2-(γGlu)-CO—(CH2)18—CO2H)AQ-Aib-EFI-(D-Glu)-YLIEGGPSSGAPPPS-NH2 (YXEGTXTSDYSIXLDEKAQXEFIXYLIEGGPSSGAPPPS; Aib, alphaMe residues, C20 diacid lipidation, C-amide; (2)..(2) Xaa at position 2 is Aib; (6)..(6) Xaa at position 6 is alpha-MeF(2F); (13)..(13) Xaa at position 13 is alpha-MeL; MOD_RES (17)..(17) K at position 17 is chemically modified by conjugation of the epsilon-amino group of the K side chain with (2-[2-(2-amino-ethoxy)-ethoxy]-acetyl)2-(gamma-Glu)-CO-(CH2)18- CO2H; (20)..(20) Xaa at position 20 is Aib; (24)..(24) Xaa at position 24 is D-Glu; MO) [Peptide 1]”, the “[hGIPR/hGLP1R] EC50 Ratio” value was 4.15.
For “Y-Aib-EGT-αMeF(2F)-TSD-4Pal-SI-αMeL-LDEK((2-[2-(2-Amino-ethoxy)-ethoxy]-acetyl)2-(γGlu)-CO—(CH2)18—CO2H)AQ-Aib-EFI-(D-Glu)-YLIEGGPSSGAPPPS-NH2 (YXEGTXTSDXSIXLDEKAQXEFIXYLIEGGPSSGAPPPS; Aib, αMeF(2F), 4Pal, αMeL, D-Glu; lipidated K; amide; (2)..(2) Xaa at position 2 is Aib; (6)..(6) Xaa at position 6 is alpha-methyl-Phe(2F); (10)..(10) Xaa at position 10 is 4Pal; (13)..(13) Xaa at position 13 is alpha-methyl-Leu; MOD_RES (17)..(17) Lys at position 17 is chemically modified by conjugation of the epsilon-amino group of the Lys side chain with (2-[2-(2-amino-ethoxy)-ethoxy]-acetyl)2-(gamma-Glu)-CO-(CH2)18- CO2H; (20)..(20) Xaa at posit) [Peptide 182]”, the “[hGIPR/hGLP1R] EC50 Ratio” value was 5.01.
